According to paper PMC11932488, “Lytic coelomocyte death is tuned by cleavage but not phosphorylation of MLKL in echinoderms” (PLOS Pathogens, 2025):

Target: the molecule itself
Assay: cross-linking; coelomocytes infected with 10^8 CFU/ml AJ01 for 3 h; Triton X-100 insoluble pellet cross-linked 30 min at room temperature (DSS by the legend); Western blot

B1: AjCASP-1 (cysteine-aspartic specific protease-1 of Apostichopus japonicus), endogenous (enzyme, UniProt A0A6G5QC75 1-299, looked up)
chain: MAVADIPSSDYVFRERKRPIRGDEPSAIHFNLRYDMQQQTRGFAHIFNNDIFQKMDDRKGTRKDRDNLKETFTNLGFKVRVHDDCTASEIRDILLEASKVDHSDFDCFLCVFLTHGDDGIIYGSDGEPESFKGNGSVHSTNRTWLRLNDDVFDIFRGNNCSTLIGKPKIFIIQACRGGTAEFSAMIGSAATDYEEPLETSVGVKVTIPTEADFLISYSSSEGYYSFRELYKGTWFIQDLTRVLNEFGRNGDFIRMLTVVNKLVSERAIQGSGKPELEGKKQMPCFLSKLTRQLHLTAQT
notes: AjCASP-1, caspase-1 of Apostichopus japonicus, MH807451; 34 kDa monomer, self-cleaved to p20 (25 kDa) after AJ01 infection; In infected cells both the uncleaved and the self-cleaved form are present; also called AjCaspase-1; source: endogenous, A. japonicus coelomocyte lysate (uninfected or AJ01-infected)
  stoichiometry N: 2
